In paper PMC5963859:

System: GST-MBNL1 (GST-MBNL1Δ101 in Methods)
Experiment: EMSA
Conditions: EMSA: 0.75 mM MgCl2, 50 mM Tris-HCl pH 7.0, 75 mM NaCl, 37.5 mM KCl, 5.25 mM DTT, 0.1 mg/ml BSA, 0.1 mg/ml bulk tRNA, RNasin 0.4 U/ul; 20 min on ice, gel at …

Which IC50 does the source give for CUG 10x RNA here?
Its IC50 is 100 nM.
